Results on 14 molecules are retold here after JP2016028048A (dated 2016).

Assay [1] addresses T1, ヒト組織因子経路インヒビター (human TFPI) (human, UniProt P10646 29-304, limits assumed).
T1 construct: Coated on Maxisorp plates (ELISA) or amine-coupled to a CM5 chip (Biacore); also called ヒトTFPI; hTFPI
T1 sequence (looked up): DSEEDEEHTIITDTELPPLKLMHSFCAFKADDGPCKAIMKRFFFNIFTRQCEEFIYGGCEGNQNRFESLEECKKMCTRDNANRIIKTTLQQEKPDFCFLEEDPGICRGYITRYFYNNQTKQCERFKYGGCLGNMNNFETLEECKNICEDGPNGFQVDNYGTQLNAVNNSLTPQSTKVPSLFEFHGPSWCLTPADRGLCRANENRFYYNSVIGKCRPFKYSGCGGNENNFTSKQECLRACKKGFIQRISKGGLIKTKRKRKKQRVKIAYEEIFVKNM
Put plainly: ELISA, Fab in bacterial lysate on human TFPI-coated plate. On the technique in general: ELISA stands for enzyme-linked immunosorbent assay.

Assay [2] deals with T1, ヒト組織因子経路インヒビター (human TFPI). Put plainly: ELISA on human TFPI-coated plate.
Assay [3] has as its target T2, マウスTFPI (mouse TFPI) (mouse, UniProt O54819 29-289, limits assumed).
T2 construct: Coated on plates (ELISA) or amine-coupled to a CM5 chip (Biacore); also called mTFPI; m-TFPI
T2 sequence (looked up): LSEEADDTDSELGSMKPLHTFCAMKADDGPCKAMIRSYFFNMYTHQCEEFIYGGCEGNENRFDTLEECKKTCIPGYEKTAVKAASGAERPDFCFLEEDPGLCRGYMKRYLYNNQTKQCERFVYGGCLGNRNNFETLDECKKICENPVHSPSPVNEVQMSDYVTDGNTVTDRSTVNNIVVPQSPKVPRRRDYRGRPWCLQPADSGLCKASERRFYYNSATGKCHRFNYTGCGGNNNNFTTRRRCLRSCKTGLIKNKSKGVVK
Put plainly: ELISA on mouse TFPI-coated plate.

Assay [4] has as its target T1, ヒト組織因子経路インヒビター (human TFPI). Put plainly: ELISA on human TFPI-coated plate; IgG against the Fab.
The target of assay [5] is T2, マウスTFPI (mouse TFPI). Put plainly: ELISA on mouse TFPI-coated plate; IgG against the Fab.

B1: TP-3G1 (Fab, V domains shown)
VH: QVQLQQSGPGLVKPSQTLSLTCAISGDSVSSNSGGWGWIRQSPGRGLEWLGLIYYRSKWYNAYAVSVKSRITINPDTSKNQFSLQLNSVTPEDTAVYYCARYLGSNFYVYSDVWGQGTLVTVSS
VL: DIQMTQSPSSLSASVGDRVTITCRASQGISSYLHWYQQKPGKAPKLLIYGASTLQSGVPSRFSGSGSGTDFTLTISSLQPEDFATYYCQQQNGYPFTFGQGTKVEIKR
notes: Human Fab (HuCal Gold), made in E. coli TG1
Turning to B1, the binding result in assay [1] is “binds”.

B2: TP-2B1 (Fab, V domains shown)
VH: QVQLVESGGGLVQPGGSLRLSCAASGFTFSSYSMSWVRQASGKGLEWVSSIKGSGSNTYYADSVKGRFTISRDNSKNTLYLQMNSLRAEDTAVYYCARNGGLIDVWGQGTLVTVSS
VL: DIELTQPPSVSVAPGQTARISCSGDNLGNKYAHWYQQKPGQAPVLVIYYDNKRPSGIPERFSGSNSGNTATLTISGTQAEDEADYYCQSWTPGSNTMVFGGGTRLTVLG
notes: as for B1
Take B2: the binding result in assay [1] is listed as “binds”.

B3: TP-3F2 (Fab, V domains shown)
VH: QVQLVESGGGLVQPGGSLRLSCAASGFTFSSYSMHWVRQAPGKGLEWVSGISYSSSFTYYADSVKGRFTISRDNSKNTLYLQMNSLRAEDTAVYYCARALGGGVDYWGQGTLVTVSS
VL: DIELTQPPSVSVAPGQTARISCSGDNLPSKSVYWYQQKPGQAPVLVIYGDNNRPSGIPERFSGSNSGNTATLTISGTQAEDEADYYCQSWTSRPMVVFGGGTKLTVLG
notes: as for B1
Take B3: in assay [1], the binding result is listed as “binds”.

B4: TP-3H2 (Fab, V domains shown)
VH: QVQLVESGGGLVQPGGSLRLSCAASGFTFNSYYMSWVRQAPGKGLEWVSNISSSGSNTNYADSVKGRFTISRDNSKNTLYLQMNSLRAEDTAVYYCARVHYGFDFWGQGTLVTVSS
VL: DIELTQPPSVSVAPGQTARISCSGDKLGKYYAYWYQQKPGQAPVLVIYGDSKRPSGIPERFSGSNSGNTATLTISGTQAEDEADYYCSSAAFGSTVFGGGTKLTVLG
notes: as for B1
In the case of B4, the binding result in assay [1] is listed as “binds”.

B5: TP-2A8 (Fab, V domains shown)
VH: QVQLVESGGGLVQPGGSLRLSCAASGFTFRSYGMSWVRQAPGKGLEWVSSIRGSSSSTYYADSVKGRFTISRDNSKNTLYLQMNSLRAEDTAVYYCARKYRYWFDYWGQGTLVTVSS
VL: DIELTQPPSVSVAPGQTARISCSGDNLRNYYAHWYQQKPGQAPVVVIYYDNNRPSGIPERFSGSNSGNTATLTISGTQAEDEADYYCQSWDDGVPVFGGGTKLTVLG
notes: Human Fab (HuCal Gold), made in E. coli TG1; also called Fab-2A8; TP-2A8-Fab
For the molecule B5, the binding result in assay [1] is reported as “binds”.

B6: TP-3G3 (Fab, V domains shown)
VH: QVQLVESGGGLVQPGGSLRLSCAASGFTFSSYSMSWVRQAPGKGLEWVSSISSSSSNTYYGDSVKGRFTISRDNSKNTLYLQMNSLRAEDTAVYYCARMHYKGMDIWGQGTLVTVSS
VL: DIQMTQSPSSLSASVGDRVTITCRASQNIHSHLNWYQQKPGKAPKLLIYDASSLQSGVPSRFSGSGSGTDFTLTISSLQPEDFAVYYCQQYYDYPLTFGQGTKVEIKR
notes: as for B1
On to B6, for which, in assay [1], the binding result was “binds”.

B7: TP-2B4 (Fab, V domains shown)
VH: QVQLVESGGGLVQPGGSLRLSCAASGFTFSNYSMTWVRQAPGKGLEWVSGISYNGSNTYYADSVKGRFTISRDNSKNTLYLQMNSLRAEDTAVYYCARIYYMNLLAGWGQGTLVTVSS
VL: DIELTQPPSVSVAPGQTARISCSGDALGTYYAYWYQQKPGQAPVLVIYGDMNRPSGIPERFSGSNSGNTATLTISGTQAEDEADYYCQSYDAGVKPAVFGGGTKLTVLG
notes: as for B1
Consider B7, for which the binding result in assay [1] was “binds”.

B8: TP-2B3 (Fab, V domains shown)
VH: QVQLQQSGPGLVKPSQTLSLTCAISGDSVSSNSAAWGWIRQSPGRGLEWLGMIYYRSKWYNSYAVSVKSRITINPDTSKNQFSLQLNSVTPEDTAVYYCARTMSKYGGPGMDVWGQGTLVTVSS
VL: DIVLTQSPATLSLSPGERATLSCRASQNIGSNYLAWYQQKPGQAPRLLIYGASTRATGVPARFNGSGSGTDFTLTISSLEPEDFAVYYCQQLNSIPVTFGQGTKVEIKR
notes: as for B1
For B8, the binding result in assay [1] is recorded as “binds”.

B9: TP-2G6 (Fab, V domains shown)
VH: QVQLQQSGPGLVKPSQTLSLTCAISGDSVSSSSAAWSWIRQSPGRGLEWLGIIYYRSKWYNDYAVSVKSRITINPDTSKNQFSLQLNSVTPEDTAVYYCARHSMVGFDVWGQGTLVTVSS
VL: DIVLTQSPATLSLSPGERATLSCRASQYVTSSYLAWYQQKPGQAPRLLIYGSSRATGVPARFSGSGSGTDFTLTISSLEPEDFATYYCQQYSSSPITFGQGTKVEIKR
notes: Human Fab (HuCal Gold), made in E. coli TG1; also called 2G6-Fab
B9: the EC50 in assay [2] is 0.48 nM; in assay [3] it was 5.18 nM.

B10: 2G6-IgG (antibody, V domains shown)
VH: B9 VH
VL: B9 VL
notes: also called IgG-2G6; TP-2G6 after conversion to IgG
Turning to B10, the results for the EC50 in assay [2] and in assay [3] were 0.22 nM and 0.51 nM, respectively. For the same molecule, the “fold change of EC50 against 2G6-Fab” value in assay [4] is 2 倍; in assay [5] it was 10 倍.

B11: TP-4B7 (Fab, V domains shown)
VH: QVQLQQSGPGLVKPSQTLSLTCAISGDSVSSNSAAWSWIRQSPGRGLEWLGIIYKRSKWYNDYAVSVKSRITINPDTSKNQFSLQLNSVTPEDTAVYYCARWHSDKHWGFDYWGQGTLVTVSS
VL: DIVMTQSPLSLPVTPGEPASISCRSSQSLVFSDGNTYLNWYLQKPGQSPQLLIYKGSNRASGVPDRFSGSGSGTDFTLKISRVEAEDVGVYYCQQYDSYPLTFGQGTKVEIKR
notes: as for B1
For the molecule B11, in assay [1], the binding result is given as “binds”.

B12: TP-4A7 (Fab, V domains shown)
VH: QVQLVESGGGLVQPGGSLRLSCAASGFTFRNYAMNWVRQAPGKGLEWVSVISGSSSYTYYADSVKGRFTISRDNSKNTLYLQMNSLRAEDTAVYYCARADLPYMVFDYWGQGTLVTVSS
VL: DIELTQPPSVSVAPGQTARISCSGDALGSKFAHWYQQKPGQAPVLVIYDDSERPSGIPERFSGSNSGNTATLTISGTQAEDEADYYCQAYDSGLLYVFGGGTKLTVLG
notes: as for B1
B12: the binding result in assay [1] was “binds”.

B13: TP-2B8 (Fab, V domains shown)
VH: QVQLVQSGAEVKKPGASVKVSCKASGYTFTGNSMHWVRQAPGQGLEWMGTIFPYDGTTKYAQKFQGRVTMTRDTSISTAYMELSSLRSEDTAVYYCARGVHSYFDYWGQGTLVTVSS
VL: DIELTQPPSVSVAPGQTARISCSGDNLRGYYASWYQQKPGQAPVLVIYEDNNRPSGIPERFSGSNSGNTATLTISGTQAEDEADYYCQSWDSPYVHVFGGGTKLTVLG
notes: as for B1
B13: in assay [1], the binding result is on record as “binds”.

B14: TP-2A10 (Fab, V domains shown)
VH: QVQLVESGGGLVQPGGSLRLSCAASGFTFTSYSMNWVRQAPGKGLEWVSAISYTGSNTHYADSVKGRFTISRDNSKNTLYLQMNSLRAEDTAVYYCARAFLGYKESYFDIWGQGTLVTVSS
VL: DIELTQPPSVSVAPGQTARISCSGDKLGKKYVHWYQQKPGQAPVLVIYGDDKRPSGIPERFSGSNSGNTATLTISGTQAEDEADYYCQAWGSISRFVFGGGTKLTVLG
notes: as for B1
For B14, the binding result in assay [1] was “binds”.

As usually defined, the EC50 is the concentration at which the effect is half-maximal.
